In one data set the target is rat FcεRI (α, β and γ subunits) on CHO-B12 cells (UniProt P12371).
Test: not given
Turning to “full length, catalytically inactive Lyn B kinase (Lys279 to Arg), rat, expressed in CHO-B12 cells”, the “antigen-induced phosphorylation of receptor tyrosines” value is recorded as 20-75% less antigen-induced phosphorylation of receptor tyrosines than cells transfected with the vector alone.

The target in another data set is C-terminal (201-243) cytoplasmic domain of the rat FcεRIβ, Gal 4 DNA binding domain fusion protein (pAS2-1-βC) (rat). Kind of data set: yeast two-hybrid, liquid β-galactosidase assay, strain Y187.
In the case of “unique domain of Lyn A (amino acids 1-66), Gal 4-activation domain fusion protein (from UniProt Q07014 1-66)”, the LacZ reporter (β-galactosidase) activity, fold over the negative control pACT-27-66-OOF was found to be 3 fold; the strength of the interaction by β-galactosidase activity, relative to p53 and SV40 was 1 per cent.

On to “unique domain of Lyn B (amino acids 1-45), Gal 4-activation domain fusion protein (from UniProt Q07014 1-66)”, for which the LacZ reporter (β-galactosidase) activity, fold over the negative control pACT-27-66-OOF was 3 fold; the strength of the interaction by β-galactosidase activity, relative to p53 and SV40 turned out to be 1 per cent.

Turning to “full length Lyn B, Gal 4-activation domain-kinase fusion protein (from UniProt P04386 768-881) (enzyme)”, the LacZ reporter (β-galactosidase) activity, fold over the negative control pACT-27-66-OOF worked out at 3 fold; the strength of the interaction by β-galactosidase activity, relative to p53 and SV40 is 1 per cent.

“full length Lyn A, Gal 4-activation domain-kinase fusion protein (from UniProt P04386 768-881) (enzyme)” gave a LacZ reporter (β-galactosidase) activity, fold over the negative control pACT-27-66-OOF of 3 fold; a strength of the interaction by β-galactosidase activity, relative to p53 and SV40 of 1 per cent.

The values above are taken from patent US6353097.
